Patent CN111138528A (INST MILITARY MEDICINE ACADEMY MILITARY SCIENCES PLA, dated 2020)

Target: GPdM (Ebola virus (EBOV), UniProt Q05320 33-632)
Assay: ELISA, truncated GP coated, 5A8 titrated (method of Example 2)

B1: 单克隆抗体5A8 (antibody, V domains shown)
VH: EVQLLESGGGLVKPGGSLRLSCAASGFTFSDYYMNWIRQAPGKGLEWVSYISSSGKTIYYADSVKGRFTISRDNAKKSLYLQMNSLRAEDTAVYYCARDREIVISTTILLGSDHYAMDVWGQGTTVTVSS
VL: DIQMTQSPFTLSASVGDRVTITCRASQSINSYLNWYQQKPGKAPKLLIYSASSLQSGVPSRFSGSGSGTDFTLTISSLQPEDFAIYYCQQTYRTPYTFGQGTKVEIKT
EC50: 8.2 ng/mL
